In a protein production outcome set (Wang et al. 2014):

Experiment: label from the status in PepcDB records
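Further: failed if final PepcDB status was selected cloned or expressed and not failed if soluble or beyond.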

Sequence: MESNLTYTEALLKLEEIVEQIEDDSIMLDTLTEKVMQANELIKYCETKLRTIEGDVRDVLQ
- protein production: failed

Sequence: MESVRIEQMLSLPAEVSSDNLESAERGASAAQVDMGPHPKVAAEGPAPLPTREPEQEQSPGTSTPESKVLLTQADALASRGRIREALEVYRQLSERQQLVAEQLEQLVRCLAEKVPQGEALAPAPPDEGSTASGTVAAEETGAAAAAAATEVWDGFKCRKCHGFLSDPVSLSCGHTFCKLCLERGRAADRRCALCGVKLSALMVATGRARGARRAGQQPPPPLRVNVVLSGLLGKLFPGPARASQLRHEGNRLYRERQVEAALLKYNEAVKLAPNDHLLYSNRSQIYFTLESHENALHDAEIACKLRPMGFKDNLELPHCSSQEEAAARGDGSSLMDPAKVKGDGQQHHMKDQEEEEEKWDATSPKAASSKTGKCQEKKRKHCQIESQEETGMPNKASKQDPPTDQGDKPALSLPLASFDASDLECALCMRLFYEPVTTPCGHTFCLKCLERCLDHNAKCPLCKDGLSQCLASRKYSKNVIMEELIAKFLPEELKERRKLYEEEMEELSNLNKNVPIFVCTMAYPTVPCPLHIFEPCYRLMIRRCIETGTRQFGMCLGDPVKGFAEYGCILEIRNVQFFADGRSVVDSIGKRRFRVLHQSQRDGYNTADIEYIEDQKVQGEDCAELMGLHNCVYQQASLWFHSLKLSLKNRILNHFGPMPEKDADPQMNPNGPAWCWWMLAVLPLESRAQLPFLAMRSLKDRLNGIRRVLAFISRNQN
- protein production: failed

Sequence: MESYSPAQTCLELVPVLADDSISAASTSDVQDRLSALESRVQQQEDEITVLKAALADVLRRLAISEDHVASVKKSMPSKGQPSLREAISMSCITNGSGINRKQNHTSSISIARKETLSSAAKSGTEKKKEKPQGQREKKEESHSNDQSPQIRASPSPQPSSQPLQINRQTPESKSSAPTKSIKRPPTAEKSHNSWENSDDSRNKLLKTVSTSKLISKVIKNTDKHKDVIINQAKMSTREKSSQEGEYIKMFMRGRPITMFIPSDVDNYDDIRTELPPEKLKLEWVYGYRGKDCRANVYLLPTGEIVYFIASVVVLFNYEERTQRHYLGHTDCVKCLAVHPDKIRMATGQIAGVDKDGRPLQPHVRVWDSVSLSTLHVIGLGTFERGVGCLDFSKADSGVHLCVIDDSNEHMLTVWDWQRKSKVAEIKTTNEVVLAVEFHPTDANTIITCGKSHIFFWTWSGNSLTRKQGIFGKYEKPKFVQCLAFLGNGDVLTGDSGGVMLIWSKTTIEPPPGKGPKGVYQISRQIKAHDGSVFTLCQMRNGMLLTGGGKDRKIILWDHDLNLEREIEVPDQYGTIRAVAEGKAEQFLVGTSRNFILRGTFNDGFQIEVQGHTDELWGLATHPFKDLLLTCAQDRQVCMWNSVEHRLEWTRLVDEPGHCADFHPSGTVVAIGTHSGRWFVLDAETRDLVSIHTDGNEQLSVMRYSVDGTLLAVGSHDNFIYLYAVSENGRKYSRYGKCTGHSSYITHLDWSPDNKHIMSNSGDYEILYWDIENGCKLIRNRSDCKDIDWTTYTCVLGFQVFGVWPEGSDGTDINALVRSHHRRVIAVADDFCKVHLFQYPCSKPKAPSHKYSAHSSHVTNVSFTHNDSHLISTGGKDMSIIQWKLVEKLPLPQNEVIADTSSTKAPASATENARLCNAPQPPSQPLPGTAEEESRVSSSPTLVENSLEQSEWGSEDLGVVIDEEPASERGEKQGAAEASEEEQGAAPLC
- protein production: failed

Sequence: METESIKLDVQVTTTSQDPSLGLLSTVIITLDRDLEEYDENVDSIKSLGSYPDSSTPDESLIILKLPTSEPDYIYLTLRSKLKDHLHDHVLSEEIADQIFEAQLGTQSIDQFPFQQPLFMLVSVKLTQKLYTYAPCNASPLATDLTKRAK
- protein production: failed

Sequence: METGTHVRDVIFPGGNAAPDAGSVVAAIHQLPTLRLLSLDAHGRVLDWINWQDAACLYARDAVSWTLGEPCMQIHGGISRLTGERSTLELHPIIAARGHARSRALDPTPTLSNTALFARDAQLCMYCGQHFSRPHLTRDHVMPVSKGGRDSWENVVTACFQCNSRKANRTPQQAHMPLLAVPYRPSWIEHLILSNRNILSDQMAFLRAQLPKRSKLSLQAGAPRVADPG
- protein production: failed

Sequence: METKQDNLIYVWDAYCGWCYGFSESIKGFYKNHTEVPLTVLCGGLFLDNLPMKNFSYIEEGNKRINQLTGAEFGPSYQKLVEEGTFKMNSKDAAIGFSALRSLAPDRLLEFTSAMQKAFYYEGQSLSDPETYRKIAIEHGLDPEQVLERLNAQETIIDVQNDFNKVRQLGVNSYPSLLLQKDNQIIPIGGGVMTPDKIEARFKNLY
- protein production: failed

Sequence: METLSDVFATFSQRGDTTAFVHRTGVRRYVFTYLDLHALSLRMNRWLADQGVGEGDRVVLWGPNSPWWAVAFWGIVTRGAVAVPVDFMSGAERAEIIAGLTDAKLVIQSRDKLDRLTGRPSVLLEELGFLLEAVEPLATTHRPAPDDMAELIYTSGTTGNPKGVILTHRNLVANILQVNRHIPVVTPDFSFLSLLPLSHMFEQMGGFFTPLYRGAAIVYIRTLKPSAIMEALGEEDIYAIIAVPRLLQLLKGSVERELEAKGLGSIFRWLLKVGERMSRGGRSVLFRPIQRKFGRNFALFVSGGAPLDPEVFRFWNGLGFRVVEGYGLTECSPVLTANTMERQVMGSVGTPLDGVELRLEEGEILARGDNIFPGYFRNEEATRGAFVDGWFRTGDLGELDPDGWLRIKGRSKELIVTGAGVNVYPDEIEAILNRTQGVREGCVIGLDRGKGEEVHGVLILDGSGRPTEEIVNEVNAKFDELHRITSFSVWPEAEFPKTTTLKIRKFQVKERIEQGGGALGDGRGADRLTALVATITGSPLEQVTEGALLVNDLGLTSIARLELVNALEMEFRLDLEDSVIGPQTRVADLREIVSRREKVHIREHFRIWAMGGVALAVRRLLDTVLHGPLLRAFVTLKSLGIENLEAADGPVMFVSNHLSYLDQPAIMCVLPDAWRYNTATAAWEEFFFRNFKNLPQRLWKRFTYEYASVAFTVFPLPQSRGFRGALHFMGTLADQGMNILLFPEGERSRDGRLLPFQQGLGVMIRELGVPVVPVRIRGLEKVLPRGASWPQKGEVSITFGKPIHFRGESPTEIVDRARRAVEDLLEHHHHHH
- protein production: failed

Sequence: METNKNFAVIGLGEFGSRICEVLVDGGASVVAFDHDIQAVERIKKIVPAAMLVETTNEEALLKAPLDDVEVAIVAIGNNIEASVLTTTLLKQRDIPYVLARAVSPLHATVLRRVGANEVLNIEISAATRIARRLISPDVMDSIAVTKDFSIREIIVPKFFIGKTVGSVALKEKFNITLIALVRMALDIDSVGNPVKQEVMHYPEDDFELREGDKLFLIGSNIKLEEFRNM
- protein production: failed

Sequence: METPYHQRWLAFPDAVSSYRPLESRLAGTSRATADNRTPCTGRLGTPRVFLMATDDVSKAYSSPTFDAEALLGTVISAEDPDRVLIEPWATGVDGVILDVGSGTGRWTGHLASLGHQIEGLEPATRLVELARQTHPSVTFHHGTITDLSDSPKRWAGLLAWYSLIHMGPGELPDALVALRMAVEDGGGLLMSFFSGPSLEPMYHPVATAYRWPLPELAQALETAGFQVTSSHWDPRFPHAYLTAEASLEHHHHHH
- protein production: not failed

Sequence: METRANYVIVGIFTLVAILAAFGFVYWTAAIGDRGETTLLRVRIPGSASGLGRGSFVLFNGVKVGDVKRVYIDVDNPTVAIADTEIDRLTPITKSTQADIGLAGLTGQANIELKGADPKEVKLLDQAEKEGKVAEIVANPSAVTNLLQTAQNIFSRADKVLSELEGFTRDVRGPLTQTVQNVQTFSDALAKNSDGIDKFLSSVSALSEELKGVSGKLDGTLKAAEGLLNAVDRDKIKSIVANVDTVTANLKQTSQQLDGVIKNVDTAVGSVNDFAKQTQGTLAKVDGVLDGVDPAQVRAALANIQKASENANKAAADIAVVTEKFANRADDIDQTIKDAKQLAQRLNDASVRVDGILARVDTLLGSGQADGLMADARDTLKSFKQVADTLNARLGVITDNLARFSGQGLSNVEALVQDSRRSITRIEEAVTDLSRNPQRILSGGDGEVRQFDGRARR
- protein production: failed

Sequence: METRYNLKSPAVKRLMKEAAELKDPTDHYHAQPLEDNLFEWHFTVRGPPDSDFDGGVYHGRIVLPPEYPMKPPSIILLTANGRFEVGKKICLSISGHHPETWQPSWSIRTALLAIIGFMPTKGEGAIGSLDYTPEERRALAKKSQDFCCEGCGSAMKDVLLPLKSGSDSSQADQEAKELARQISFKAEVNSSGKTISESDLNHSFSLTDLQDDIPTTFQGATASTSYGLQNSSAASFHQPTQPVAKNTSMSPRQRRAQQQSQRRLSTSPDVIQGHQPRDNHTDHGGSAVLIVILTLALAALIFRRIYLANEYIFDFEL
- protein production: failed

Sequence: METSSSSPVKPRRKDKDEDKFRIGATLAFIVVIIGIGVPMWWRTTTVYRVNLPSTEILSLSKIPIKTAVQVAIYTQQTSRGQLLIAELQNAFSDNEIWSVEFKQLSPTPMTQEAHTPAALEKLLLENHVQSVGDFMFIEWPKLQEELLLTTERSALMRSDTPSNKIAQLLHAKILQTYRINQILSTDERMGAKSEAPQPAYDVIVSVLNPKPRLTHAKWNIAMAVKTYIEPWLAKVSGVSNYTVRSQWKYRVAIEADLKQVRDQSKLGRHYALQETALPHLLTSIAQNLSASTTDKPAINLVVYIPPCHIAPLHIYNSKDQRLTRNDVDAFISPPWGGFIIANPPEHVCLAAMSDQEAVPYHVSTTDNMQVMLDQLHKLLDISSELQMEGVKVVDIEQLEPRRWEYEAYLRRSAIRHISTASSTLQSLIKLLDQISYIVIDDEVGAAITNSYADILAAKAALLEHRLADASVLAKRAFVASERGFFDASLLAQLYFPDEQKYAIYIPLFLPIMVPVLSSFNMLRGVLQARRKEKQS
- protein production: failed

Sequence: METYLEIETLIKRIFNSFRHEVEAVLDKRLSGSEYRVLSLISSGLTKTSDLAKTLDVSASHITAITDTLVEEKLITRHRSEVDRRIIELKLTSNAEEFVKEIDKKKKEMIVKRFAVFSEYEQAEFRKLLKKLADGSQSNK
- protein production: failed

Sequence: MEVDTMETLIRLFVSILIICVLALMIKKSRCLDNEGVIGSSIMGFILLYFCGFKYLILLLSFFILGVLVSRVGLEKKKAKKMDETCRSLKNVLANGLIPILFAILAIFGFNWALIGYISSIAAATSDTFSSELGILSNEKPRLITTFEVVEKGTDGAITIFGTLAGVLGAFLIGLFGYLLFGDIKIVLCGTAGGIAGNLADSLVGALFERKGILNNEHVNLIATIVGGIIGVLIYCTL
- protein production: failed

Sequence: MEVERKIVSLEALYIVYDADGTVAGELLYLLRKWLGKGHCAACDITHGPRKVKPEWTILQKTGWLGVPLFNIHRDEMEPKLRSAVSCALPCVAALVDNGDYVLLLQPEDLESCKGQVSKLQEKIVEALKDFGFQVNESFTSVVTSDLSDTCPSTLDREKEEDDAVVPF
- protein production: failed

Sequence: MEVLKDFLLFYGGLFAITNPIGAVPVFIAVTRNLSPEKRKEIARKTSTTVMVTLLVFALVGEWIFKFFGASTDAFSIAGGIILFRMSLEMLSGKLSSVKISEEEEHISEEAVTLEEVAIIPLAIPLLSGPGAITTTMLYMAKSSTMIEKSIVLLVVVAIGITVWIILSAANRIHQKLGTIGIKVMTRMMGLILASMAVQMVINGVKGAFNI
- protein production: failed

Sequence: MEVLLDVKERMSILKNFYDEVRVVDPINNIVFSDDFNLKINNKFNEKDCSLSNCYDVWGKKSMCSTCISKKAYLKNDTFIKLEYNKNHVFLVIASPIEFNENKYVVEILKDITNNGSIVDGSGEGNYLDLTMKKMGENLIKDYLTGVYNKRYIDQRFSKEAHRNLKESIPTTVIMTDIDSFKKVNDTYGHLVGDKILRDFAKVLNNNIRENSDWIGRYGGEEFIIVLNNTNLKNGVKVAEKLRKIIEKMSFDYGDLSLKITSSFGVCEVSEKEDPFDTIKNADEKLYMAKMTGRNKTVF
- protein production: failed

Sequence: MEVMRGVRVIEGMNGGRFPYCNVVVVGDVVIDAGAGLEVMRKVNASLLVLSHLHPDHSSGAWLFKDVLAPAEGRITLDTLARRFVAPDLVESWKRFISAATGLREFECERYEEGVVVKEPEIVAVPVKGHTMDHHVFLIEQKVLFGADVDLTSFGPFYGNPEADPYLFEREMDKLLDIDFEIFVSAHSKPLEHHHHHH
- protein production: failed
